Experimental data published in US12312641B2, “Sensitivity marker for antibody-drug conjugate” (priority 2018, dated 2025).

Columns and labels:
[1] = system: patient-derived xenograft (PDX) model; experiment: Anti-tumor effect (TGI) in patient-derived xenograft models, 21 days after administration; assay type: in vivo, nu/nu mice; settings: for TGI (%): 10 mg/kg tail vein, 21 days after administration; for Proportion of PDX models showing TGI of 75% or more: TGI at 21 days
Method: Mice: Female nu/nu mice (Envigo) aged 5-8 weeks were acclimatized under SPF conditions for 3 days or more prior to experimental use. Mice were fed with sterile solid feed (Teklad2919, Envigo) and given reverse osmosis membrane-treated water (containing 2 ppm chlorine).
Measurements and Calculation formula: long and short diameters of tumors were measured twice a week with an electronic digital caliper (CD-6PMX, Mitutoyo Corp.) and tumor volume (mm^3) was calculated using the following calculation formula: Tumor volume (mm^3)=0.52×Long diameter (mm)×[Short diameter (mm)]^2
Tumor fragments from each cancer patient were subcutaneously implanted into mice and passaged. The obtained tumors were used to subcutaneously implant tumor fragments, which were cut to approximately 5×5×5 mm^3, into the left abdomen of the female nu/nu mice, thereby each patient-derived xenograft (PDX) model was created. Mice were randomly grouped when the mean transplanted tumor volume reached 150 to 300 mm^3 (Day 0). On the same day as grouping, the antibody-drug conjugate (1) was administered into the tail vein at a dose of 10 mg/kg. A formulation buffer was similarly administered at a volume of 10 mL/kg as a negative control. Tumor growth inhibition rates (TGI (%)) were calculated according to the following calculation formula using each tumor volume 21 days after administration (Table 1). Tumor growth inhibition rate (%)=100×(1−Tf/mean Cf) • Tf: tumor volume 21 days after administration of antibody-drug conjugate (1) • mean Cf: arithmetic mean tumor volume 21 days after administration in negative control group mice
Data on the amount of gene expression in each PDX model used in Example 2 were obtained and normalized at Champions Oncology, Inc., thereby a RPKM value was obtained. To the RPKM value, 1 was added, and the sum was transformed to a logarithmic (log2) to obtain a log2[RPKM+1] value (Table 2). The log2[RPKM+1] value was used to analyze the relationship between the anti-tumor activity of antibody-drug conjugate (1) in each PDX model (Table 1) and the amount of expression of the hTROP2 gene and the SLFN11 gene. […] When TGI was 80% or more, the prediction rate decreased to an order of 60% only when the log2[RPKM+1] value of the hTROP2 gene exceeded 7.5 and the log2[RPKM+1] value of the SLFN11 gene exceeded 1.0 and was less than or equal to 2.

[2] = system: relapsed and advanced non-small cell lung cancer; experiment: Phase 1 study, dose escalation part, maximum tumor change rate; assay type: in vivo, human
Method: In a dose escalation part of a Phase 1 study for patients with relapsed and advanced non-small cell lung cancer, the antibody-drug conjugate (1) was administered intravenously once every three weeks until unacceptable toxicity or worsening of the pathological condition was observed. The dose-limiting toxicity was determined in Cycle 1 (Days 1-21). Tumor sampling was performed after entry into the clinical study following the first dose. Note that a minus value in the maximum tumor change rate means that the tumor has been reduced by administration of antibody-drug conjugate (1).
Gene expression data of each patient were obtained by EdgeSeq after preparing a section from a formalin-fixed paraffin-embedded specimen of tumor tissue of each patient prior to antibody-drug conjugate (1) administration, and cutting out a tumor site by laser microdissection. The obtained count data were normalized by the Median normalization method, thereby the amount of expression of each gene was obtained. All the above tests were performed at HTG Molecular Diagnostics, Inc.
To the Median Normalized Count (MNC) value, after being obtained and normalized at HTG Molecular Diagnostics, Inc., 1 was added, and the sum was transformed to a logarithmic (log2) to obtain a log2[MNC+1] value (Table 15). The log2[MNC+1] value was used to analyze the relationship between the anti-tumor activity of antibody-drug conjugate (1) in each patient (Table 14) and the amount of expression of the hTROP2 gene and the SLFN11 gene. When all of the evaluated patients were grouped into groups having at least a certain amount of expression of the hTROP2 and SLFN11 genes (Table 16), it was shown that the proportion of patients showing at least a certain drug efficacy (maximum tumor change rate of 0% or less) is higher as the hTROP2 gene expression and the SLFN11 gene expression increases (Table 17). In the absence of grouping by SLFN11 gene expression, the proportion of patients showing the maximum tumor change rate of 0% or less was not more than 75 to 80%. […] For example, when the log2[MNC+1] value of the hTROP2 gene exceeds 12 and the log2[MNC+1] value of the SLFN11 gene exceeds 11.5, the proportion of patients in which the maximum tumor change rate is 0% or less is about 80% to 100%.

B1: antibody-drug conjugate (1): humanized anti-hTROP2 antibody (SEQ ID NO: 1 residues 20-470, SEQ ID NO: 2 residues 21-234) conjugated to the exatecan-derivative drug-linker via a thioether bond (conjugate, chains of the INN, looked up)
VH: QVQLVQSGAEVKKPGASVKVSCKASGYTFTTAGMQWVRQAPGQGLEWMGWINTHSGVPKYAEDFKGRVTISADTSTSTAYLQLSSLKSEDTAVYYCARSGFGSSYWYFDVWGQGTLVTVSS
VL: DIQMTQSPSSLSASVGDRVTITCKASQDVSTAVAWYQQKPGKAPKLLIYSASYRYTGVPSRFSGSGSGTDFTLTISSLQPEDFAVYYCQQHYITPLTFGQGTKLEIK
modifications: exatecan-derivative drug-linker
- TGI (%) ([1]; PDX model #1, Breast): 98.1%
- TGI (%) ([1]; PDX model #2, Lung): 77.3%
- TGI (%) ([1]; PDX model #3, Cholangiocarcinoma): 48.0%
- TGI (%) ([1]; PDX model #4, Pancreatic): 48.5%
- TGI (%) ([1]; PDX model #5, Colorectal): 65.0%
- TGI (%) ([1]; PDX model #6, Breast): 95.5%
- TGI (%) ([1]; PDX model #7, Breast): 94.7%
- TGI (%) ([1]; PDX model #8, Head and neck): 55.6%
- TGI (%) ([1]; PDX model #9, Head and neck): 99.1%
- TGI (%) ([1]; PDX model #10, Lung): 97.7%
- TGI (%) ([1]; PDX model #11, Lung): 95.4%
- TGI (%) ([1]; PDX model #12, Breast): 95.8%
- TGI (%) ([1]; PDX model #13, Lung): 70.0%
- TGI (%) ([1]; PDX model #14, Breast): 90.1%
- TGI (%) ([1]; PDX model #15, Cholangiocarcinoma): 61.2%
- TGI (%) ([1]; PDX model #16, Colorectal): 52.7%
- TGI (%) ([1]; PDX model #17, Breast): 62.6%
- TGI (%) ([1]; PDX model #18, Lung): 18.4%
- TGI (%) ([1]; PDX model #19, Lung): 50.3%
- Proportion of PDX models showing TGI of 75% or more ([1]; log2[RPKM+1]: hTROP2 >6.5, SLFN11 >1, 10 models): 60%
- Proportion of PDX models showing TGI of 75% or more ([1]; log2[RPKM+1]: hTROP2 >6.5, SLFN11 >2, 6 models): 83%
- Proportion of PDX models showing TGI of 75% or more ([1]; log2[RPKM+1]: hTROP2 >6.5, SLFN11 >3, 3 models): 100%
- Proportion of PDX models showing TGI of 75% or more ([1]; log2[RPKM+1]: hTROP2 >6.5, SLFN11 All models, 15 models): 47%
- Proportion of PDX models showing TGI of 75% or more ([1]; log2[RPKM+1]: hTROP2 >7.0, SLFN11 >1, 9 models): 67%
- Proportion of PDX models showing TGI of 75% or more ([1]; log2[RPKM+1]: hTROP2 >7.0, SLFN11 >2, 6 models): 83%
- Proportion of PDX models showing TGI of 75% or more ([1]; log2[RPKM+1]: hTROP2 >7.0, SLFN11 >3, 3 models): 100%
- Proportion of PDX models showing TGI of 75% or more ([1]; log2[RPKM+1]: hTROP2 >7.0, SLFN11 All models, 11 models): 55%
- Proportion of PDX models showing TGI of 75% or more ([1]; log2[RPKM+1]: hTROP2 >7.5, SLFN11 >1, 6 models): 83%
- Proportion of PDX models showing TGI of 75% or more ([1]; log2[RPKM+1]: hTROP2 >7.5, SLFN11 >2, 4 models): 100%
- Proportion of PDX models showing TGI of 75% or more ([1]; log2[RPKM+1]: hTROP2 >7.5, SLFN11 >3, 2 models): 100%
- Proportion of PDX models showing TGI of 75% or more ([1]; log2[RPKM+1]: hTROP2 >7.5, SLFN11 All models, 8 models): 63%
- Proportion of PDX models showing TGI of 75% or more ([1]; log2[RPKM+1]: hTROP2 >8.0, SLFN11 >1, 5 models): 80%
- Proportion of PDX models showing TGI of 75% or more ([1]; log2[RPKM+1]: hTROP2 >8.0, SLFN11 >2, 3 models): 100%
- Proportion of PDX models showing TGI of 75% or more ([1]; log2[RPKM+1]: hTROP2 >8.0, SLFN11 >3, 2 models): 100%
- Proportion of PDX models showing TGI of 75% or more ([1]; log2[RPKM+1]: hTROP2 >8.0, SLFN11 All models, 7 models): 57%
- Proportion of PDX models showing TGI of 75% or more ([1]; log2[RPKM+1]: hTROP2 All models, SLFN11 >1, 13 models): 54%
- Proportion of PDX models showing TGI of 75% or more ([1]; log2[RPKM+1]: hTROP2 All models, SLFN11 >2, 9 models): 67%
- Proportion of PDX models showing TGI of 75% or more ([1]; log2[RPKM+1]: hTROP2 All models, SLFN11 >3, 5 models): 80%
- Proportion of PDX models showing TGI of 75% or more ([1]; log2[RPKM+1]: hTROP2 All models, SLFN11 All models, 19 models): 47%
- Prediction rate when TGI was 80% or more ([1]; log2[RPKM+1]: hTROP2 exceeded 7.5 and SLFN11 exceeded 1.0 and less than or equal to 2): ~60%
- Proportion of animal models showing TGI of 75% or more ([1]; log2[RPKM+1]: hTROP2 exceeds 7.5 and SLFN11 exceeds 2.0, or hTROP2 exceeds 6.5 and SLFN11 exceeds 3.0): 100%
- Maximum tumor change rate (%) ([2]; Patient #1, 2 mg/kg intravenously once every three weeks): −7.14%
- Maximum tumor change rate (%) ([2]; Patient #2, 2 mg/kg intravenously once every three weeks): −68.52%
- Maximum tumor change rate (%) ([2]; Patient #3, 2 mg/kg intravenously once every three weeks): −4.76%
- Maximum tumor change rate (%) ([2]; Patient #4, 2 mg/kg intravenously once every three weeks): −11.70%
- Maximum tumor change rate (%) ([2]; Patient #5, 2 mg/kg intravenously once every three weeks): 52.00%
- Maximum tumor change rate (%) ([2]; Patient #6, 2 mg/kg intravenously once every three weeks): 3.15%
- Maximum tumor change rate (%) ([2]; Patient #7, 4 mg/kg intravenously once every three weeks): 33.33%
- Maximum tumor change rate (%) ([2]; Patient #8, 4 mg/kg intravenously once every three weeks): −53.13%
- Maximum tumor change rate (%) ([2]; Patient #9, 6 mg/kg intravenously once every three weeks): −52.27%
- Maximum tumor change rate (%) ([2]; Patient #10, 8 mg/kg intravenously once every three weeks): −3.47%
- Maximum tumor change rate (%) ([2]; Patient #11, 8 mg/kg intravenously once every three weeks): −35.46%
- Maximum tumor change rate (%) ([2]; Patient #12, 8 mg/kg intravenously once every three weeks): −63.64%
- Proportion of patients showing a maximum tumor change rate of 0% or less ([2]; log2[MNC+1]: hTROP2 >12, SLFN11 >11.5, 8 patients): 88%
- Proportion of patients showing a maximum tumor change rate of 0% or less ([2]; log2[MNC+1]: hTROP2 >12, SLFN11 >12.5, 4 patients): 100%
- Proportion of patients showing a maximum tumor change rate of 0% or less ([2]; log2[MNC+1]: hTROP2 >12, SLFN11 All, 9 patients): 78%
- Proportion of patients showing a maximum tumor change rate of 0% or less ([2]; log2[MNC+1]: hTROP2 >14, SLFN11 >11.5, 5 patients): 80%
- Proportion of patients showing a maximum tumor change rate of 0% or less ([2]; log2[MNC+1]: hTROP2 >14, SLFN11 >12.5, 2 patients): 100%
- Proportion of patients showing a maximum tumor change rate of 0% or less ([2]; log2[MNC+1]: hTROP2 >14, SLFN11 All, 5 patients): 80%
- Proportion of patients showing a maximum tumor change rate of 0% or less ([2]; log2[MNC+1]: hTROP2 All, SLFN11 >11.5, 11 patients): 82%
- Proportion of patients showing a maximum tumor change rate of 0% or less ([2]; log2[MNC+1]: hTROP2 All, SLFN11 >12.5, 5 patients): 100%
- Proportion of patients showing a maximum tumor change rate of 0% or less ([2]; log2[MNC+1]: hTROP2 All, SLFN11 All, 12 patients): 75%
